Laboratory results reported in US20200270704A1 (published 2020).
Read-outs that look alike come from different tables or passages of the source.

Tests used:
NY-ESO-1 [1] = molecular target: T1, NY-ESO-1 (human, UniProt P78358 1-180); experiment: SPR
NY-ESO-1 [2] = molecular target: T1, NY-ESO-1; experiment: SPR; remark: listed apart in the source

T1 sequence (P78358 whole entry): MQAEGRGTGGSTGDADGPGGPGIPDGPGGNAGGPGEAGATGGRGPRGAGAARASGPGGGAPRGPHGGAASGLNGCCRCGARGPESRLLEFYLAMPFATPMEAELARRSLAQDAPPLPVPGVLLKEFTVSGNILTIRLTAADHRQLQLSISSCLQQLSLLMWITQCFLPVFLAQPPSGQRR

- Kd (NY-ESO-1 [1]): 37 nM
- Kd (NY-ESO-1 [2]): 37 nM
B1: BC2-3G1 (antibody, V domains shown)
VH: QVQLQQSGPGLVKPSQTLSLTCAISGDSVSSNSAAWNWIRQSPSRGLEWLGRTYYRSKWYNDYAVSVKSRITINPDTSKNQFSLQLNSVTPEDTAVYYCARDLGIAAAGDFDYWGQGTLVTVSS
VL: EIVLTQSPATLSLSPGERATLSCRASQGVSSYLAWYQQKPGQAPRLLIYDASNRATGIPARFSGSGSGTDFTLTISSLEPEDFAVYYCHQGSNWPTFGGGTKVEI
